Source: paper PMC9372576

Tests used:
[1] = target: GvpA fused to NGFP or CGFP (Halobacterium salinarum) (UniProt P08958); assay: split reporter (BiFC, NanoBiT); split-GFP (NGFP and CGFP of salt-stable mGFP2) in Hfx. volcanii transformants, 24 h 37 °C then 24 h 30 °C; relative fluorescence (rf) against the wild type; the highest of eight tag combinations is given
[2] = target: GvpA fused to NGFP or CGFP (Halobacterium salinarum) (UniProt P08958); assay: split reporter (BiFC, NanoBiT); split-GFP of A/A with untagged GvpC, GvpN and GvpO co-produced under the P2 promoter (A/A + CNO)

Sequence of GvpA fused to NGFP or CGFP (Halobacterium salinarum) (P08958 whole entry, the tested form may be a part): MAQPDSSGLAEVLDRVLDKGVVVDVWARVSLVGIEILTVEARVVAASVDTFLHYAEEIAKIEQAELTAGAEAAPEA

Row | Substance | relative fluorescence (rf) [1] | relative fluorescence (rf) [2]
1 | GvpC fused to NGFP or CGFP (from UniProt P24574 1-382) (natural protein) | < 2 LAU/mm^2 | 
2 | GvpA fused to NGFP or CGFP (from UniProt P08958 1-76) (natural protein) | < 2 LAU/mm^2 | 5.12 LAU/mm^2
